Test results reported in patent CN115141281A (dated 2022).

Target: T1, 人环氧合酶-2(COX-2) (human, UniProt P35354 18-604, limits assumed)
T1 construct: also called 人COX-2; 重组人COX2
T1 sequence (looked up): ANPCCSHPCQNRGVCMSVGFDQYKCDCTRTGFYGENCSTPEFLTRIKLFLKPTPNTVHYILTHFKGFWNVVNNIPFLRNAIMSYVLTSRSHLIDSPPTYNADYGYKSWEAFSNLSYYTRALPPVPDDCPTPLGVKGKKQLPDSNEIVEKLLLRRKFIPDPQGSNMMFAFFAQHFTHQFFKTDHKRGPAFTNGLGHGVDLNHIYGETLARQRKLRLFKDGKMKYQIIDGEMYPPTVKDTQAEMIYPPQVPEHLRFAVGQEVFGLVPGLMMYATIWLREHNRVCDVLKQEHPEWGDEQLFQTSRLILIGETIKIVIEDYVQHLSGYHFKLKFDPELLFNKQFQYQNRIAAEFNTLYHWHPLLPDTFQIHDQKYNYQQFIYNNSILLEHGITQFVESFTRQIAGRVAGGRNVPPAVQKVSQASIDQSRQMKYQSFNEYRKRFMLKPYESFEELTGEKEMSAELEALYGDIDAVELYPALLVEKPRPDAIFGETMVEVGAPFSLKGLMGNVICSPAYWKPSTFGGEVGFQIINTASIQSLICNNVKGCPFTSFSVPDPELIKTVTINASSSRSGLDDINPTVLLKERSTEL
Test: BLI, antibody (25 nM) loaded on AHC sensor, two-fold dilutions of human COX-2 in solution

Kd: 0.696 nM
B1: COX-2-HM4E6单克隆抗体 (antibody, V domains shown)
VH: EVQLEESATELARPGASVKLSCKASGYIFSVLMILWIKQRPGQGLEWIGLCKMLIPNFNMRHALFGKATLTADKSSSTAYMQLSSLASEDSAVYYCAGFIDNIWYWGLGTTLAVSS
VL: DIVITQRPALMAASPGEKVTITCQDSGNVYRNEKPWYQQKSGISPKPWIYYATHFTKGVPARFSGSGSGTSYSLTITSMEAEDAATYYCTFGCKHFDHFGAGTKLELK
